Experimental data published in PMC12092789.

Molecular target: RAD51 (UniProt Q06609)
Assay: co-immunoprecipitation, Western blot
Conditions: reference: wild-type NPM1, cisplatin; sites S260

nucleophosmin 1 (NPM1) (from UniProt P06748) NPM1 S260A, cisplatin
binding against the reference: stronger
